The source of these data is article PMC11388340, “HIRA complex deposition of histone H3.3 is driven by histone tetramerization and histone-DNA binding”.

Data set [1] addresses HIRA-WB;UBN1-NM (human;human, UniProt P54198;Q9NPG3 1-473;1-584, |). The data set is described as follows: fluorescence polarization; no histones; 20 mM HEPES pH 7.5, 150 mM NaCl, 0.5 mM TCEP, 0.001% Tween-20, 1 mg/ml BSA; 10 nM probe; temperature not stated. The conditions noted are these: protein: recombinant;recombinant; tags: N-terminal His;; copies: 1;1; label: 5'-FAM on sense strand; blunt.

For data set [2], the target named is HIRA-WB;UBN1-NM;ASF1a-C (human;human;human?, UniProt P54198;Q9NPG3;Q9Y294 1-473;1-584;1-156, ||). The data set is described as above. Conditions: protein: recombinant;recombinant;recombinant; tags: N-terminal His;;GST cleaved with precision protease; copies: 1;1;1; label: 5'-FAM on sense strand; blunt.
Data set [3] concerns the target HIRA-WB;UBN1-NM;H3.3/H4 (human;human;Homo sapiens (H3.3); …, UniProt P54198;Q9NPG3;P84243;P62799 1-473;1-584;2-136;2-103, ||). The experiment in a line: fluorescence polarization; 20 mM HEPES pH 7.5, 150 mM NaCl, 0.5 mM TCEP, 0.001% Tween-20, 1 mg/ml BSA; 10 nM probe; temperature not stated.
Data set [4] concerns the target H3.3/H4 (Homo sapiens (H3.3); Xenopus laevis (H4), UniProt P84243;P62799 2-136;2-103). Described as above.

B1: 10x ATGC 40-mer dsDNA (dsDNA)
DNA 1: ATGCATGCATGCATGCATGCATGCATGCATGCATGCATGC
DNA 2: GCATGCATGCATGCATGCATGCATGCATGCATGCATGCAT
On to B1, for which the dissociation constant (Kd) in data set [1] came to 370 nM; in data set [2], 970 nM; in data set [3], 40 nM; in data set [4], 240 nM.
